Data published in patent US20220213163A1.

Molecular target: IL-2 receptor (IL-2R) on CTLL-2 cells
Test: cell-based or functional assay

## Proleukin (recombinant human IL-2, Novartis Pharma GmbH; the Aldesleukin drug employed in the clinic) (from UniProt P60568 22-153) (ligand)
  mean effective dose (ED50), CTLL-2 proliferation (MTT assay): 340 pg/mL
